Source: patent US20250228958A1, “TSP1 INHIBITOR” (Daiichi Sankyo Company, Limited, priority 2022, published 2025)
Positions of bridges follow the written chain, without caps; N, C: chain ends. Non-standard residues stand in square brackets, D forms with d. No end group written: not given here. 2Nal = N[C@@H](Cc1ccc2ccccc2c1)C(=O)O; Gly(cPent) = N[C@H](C(=O)O)C1CCCC1; 4Pal = N[C@@H](Cc1ccncc1)C(=O)O; Agb = N=C(N)NCC[C@H](N)C(=O)O; Pen = CC(C)(S)[C@H](N)C(=O)O; Phg = N[C@H](C(=O)O)c1ccccc1; Tle = CC(C)(C)[C@H](N)C(=O)O; hCys = N[C@@H](CCS)C(=O)O

Target: Thrombospondin human platelet (Calbiochem, 605225) (human, UniProt P07996 19-1170)
Sequence (P07996 19-1170 limits assumed): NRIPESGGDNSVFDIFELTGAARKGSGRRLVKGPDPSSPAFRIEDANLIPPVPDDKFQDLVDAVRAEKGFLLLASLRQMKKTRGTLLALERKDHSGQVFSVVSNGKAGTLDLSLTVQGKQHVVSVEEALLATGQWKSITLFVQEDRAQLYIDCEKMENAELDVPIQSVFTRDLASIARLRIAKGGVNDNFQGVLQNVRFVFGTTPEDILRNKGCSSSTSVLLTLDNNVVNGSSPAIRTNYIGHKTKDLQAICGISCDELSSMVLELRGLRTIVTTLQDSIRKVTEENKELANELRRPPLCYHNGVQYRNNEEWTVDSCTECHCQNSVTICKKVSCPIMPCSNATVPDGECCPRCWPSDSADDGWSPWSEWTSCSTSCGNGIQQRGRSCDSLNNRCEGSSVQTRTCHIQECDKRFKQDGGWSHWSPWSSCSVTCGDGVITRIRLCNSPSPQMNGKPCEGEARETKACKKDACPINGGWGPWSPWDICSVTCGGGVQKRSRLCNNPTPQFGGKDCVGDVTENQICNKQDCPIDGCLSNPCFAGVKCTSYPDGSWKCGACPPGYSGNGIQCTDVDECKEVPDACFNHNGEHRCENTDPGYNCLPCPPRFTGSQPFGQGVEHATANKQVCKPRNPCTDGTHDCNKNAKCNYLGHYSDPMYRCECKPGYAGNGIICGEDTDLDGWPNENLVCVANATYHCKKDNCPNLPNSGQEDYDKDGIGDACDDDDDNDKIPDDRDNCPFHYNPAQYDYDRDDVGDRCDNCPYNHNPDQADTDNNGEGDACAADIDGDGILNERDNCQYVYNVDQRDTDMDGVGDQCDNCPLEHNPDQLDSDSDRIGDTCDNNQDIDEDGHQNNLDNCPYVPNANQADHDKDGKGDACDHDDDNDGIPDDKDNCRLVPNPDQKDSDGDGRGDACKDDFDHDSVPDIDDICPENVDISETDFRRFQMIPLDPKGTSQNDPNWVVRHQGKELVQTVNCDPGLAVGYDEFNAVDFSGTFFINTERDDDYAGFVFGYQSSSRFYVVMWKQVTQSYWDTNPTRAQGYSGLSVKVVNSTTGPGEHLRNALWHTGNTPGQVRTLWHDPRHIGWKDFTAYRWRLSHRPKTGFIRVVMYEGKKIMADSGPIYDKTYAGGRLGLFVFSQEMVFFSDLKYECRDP
Experiment: cell-based or functional assay

B1: Peptide-125 (peptide)
peptide: [2Nal]R[hCys]GRDW[hCys]RW[Gly(cPent)]C-NH2
modifications: linker 3-8 via acetone bridge (-S-CH2-CO-CH2-S-); bridge N-12; not fully specified (N-terminus, bridges)
  IC50 for inhibition of cell adhesion (HUVEC to coated human TSP1): 305 nM

## [2Nal]R[hCys]GRNW[hCys]RWVC-NH2 (disulfide 3-8; bridge N-12; not fully specified (N-terminus, bridges)) [Peptide-12]
  IC50 for inhibition of cell adhesion (HUVEC to coated human TSP1): 18.6 nM

## [2Nal][Agb][hCys]G[Agb]NW[hCys]RW[Gly(cPent)]C-NH2 (disulfide 3-8; bridge N-12; not fully specified (N-terminus, bridges)) [Peptide-2]
  IC50 for inhibition of cell adhesion (HUVEC to coated human TSP1): 20 nM

## [2Nal][Tle][hCys]GRNW[hCys]RW[Gly(cPent)]C-NH2 (disulfide 3-8; bridge N-12; not fully specified (N-terminus, bridges)) [Peptide-8]
  IC50 for inhibition of cell adhesion (HUVEC to coated human TSP1): 12.6 nM

## [2Nal]R[Pen]GRDW[hCys]RW[Gly(cPent)]C-NH2 (disulfide 3-8; bridge N-12; not fully specified (N-terminus, bridges)) [Peptide-135]
  IC50 for inhibition of cell adhesion (HUVEC to coated human TSP1): 208 nM

## [2Nal]RCGRDWCRW[Gly(cPent)]C-NH2 (bridge 3-8, N-12; not fully specified (N-terminus, bridges)) [Peptide-130]
  IC50 for inhibition of cell adhesion (HUVEC to coated human TSP1): 7.7 nM

## [2Nal]R[hCys]GRDW[hCys]RW[Gly(cPent)]C-NH2 (bridge 3-8, N-12; not fully specified (N-terminus, bridges)) [Peptide-127]
  IC50 for inhibition of cell adhesion (HUVEC to coated human TSP1): 11.6 nM

## [2Nal]R[hCys]G[Agb]DW[hCys]RW[Gly(cPent)]C-NH2 (disulfide 3-8; bridge N-12; not fully specified (N-terminus, bridges)) [Peptide-9]
  IC50 for inhibition of cell adhesion (HUVEC to coated human TSP1): 22.4 nM

## [2Nal]R[Pen]GRDWCRW[Gly(cPent)]C-NH2 (bridge 3-8, N-12; not fully specified (N-terminus, bridges)) [Peptide-137]
  IC50 for inhibition of cell adhesion (HUVEC to coated human TSP1): 80.6 nM

## [2Nal]R[hCys]GRDW[Pen]RW[Gly(cPent)]C-NH2 (bridge 3-8, N-12; not fully specified (N-terminus, bridges)) [Peptide-136]
  IC50 for inhibition of cell adhesion (HUVEC to coated human TSP1): 162 nM

## [2Nal]R[hCys]GRNW[hCys]VW[Gly(cPent)]C-NH2 (disulfide 3-8; bridge N-12; not fully specified (N-terminus, bridges)) [Peptide-7]
  IC50 for inhibition of cell adhesion (HUVEC to coated human TSP1): 31.1 nM

## [2Nal]R[hCys]GRDW[hCys]RW[Gly(cPent)]C-NH2 (disulfide 3-8; bridge N-12; not fully specified (N-terminus, bridges)) [Peptide-11]
  IC50 for inhibition of cell adhesion (HUVEC to coated human TSP1): 26 nM

## [2Nal]R[hCys]GRDW[Pen]RW[Gly(cPent)]C-NH2 (disulfide 3-8; bridge N-12; not fully specified (N-terminus, bridges)) [Peptide-134]
  IC50 for inhibition of cell adhesion (HUVEC to coated human TSP1): 102 nM

## [2Nal]RCGRDW[hCys]RW[Gly(cPent)]C-NH2 (disulfide 3-8; bridge N-12; not fully specified (N-terminus, bridges)) [Peptide-126]
  IC50 for inhibition of cell adhesion (HUVEC to coated human TSP1): 10.8 nM

## [2Nal]R[hCys]G[Agb]NW[hCys][4Pal]W[Gly(cPent)]C-NH2 (disulfide 3-8; bridge N-12; not fully specified (N-terminus, bridges)) [Peptide-5]
  IC50 for inhibition of cell adhesion (HUVEC to coated human TSP1): 23.6 nM

## [2Nal]RCGRDWCRW[Gly(cPent)]C-NH2 (disulfide 3-8; bridge N-12; not fully specified (N-terminus, bridges)) [Peptide-128]
  IC50 for inhibition of cell adhesion (HUVEC to coated human TSP1): 8.4 nM

## [2Nal]R[hCys]G[Agb]NW[hCys][Phg]W[Gly(cPent)]C-NH2 (disulfide 3-8; bridge N-12; not fully specified (N-terminus, bridges)) [Peptide-4]
  IC50 for inhibition of cell adhesion (HUVEC to coated human TSP1): 33.8 nM

B2: Peptide-115 (peptide)
peptide: [2Nal]RSG[Agb]NWVRW[Gly(cPent)]C
modifications: bridge N-12; not fully specified (N-terminus, C-terminus, bridges); also: C-terminus amide-bonded to a linker (not defined)
  IC50 for inhibition of cell adhesion (HUVEC to coated human TSP1): 17.5 nM

## [2Nal]R[hCys]GRDWCRW[Gly(cPent)]C-NH2 (disulfide 3-8; bridge N-12; not fully specified (N-terminus, bridges)) [Peptide-129]
  IC50 for inhibition of cell adhesion (HUVEC to coated human TSP1): 43.7 nM

## [2Nal]R[hCys]G[Agb]NW[hCys]RW[Gly(cPent)]C-NH2 (disulfide 3-8; bridge N-12; not fully specified (N-terminus, bridges)) [Peptide-1]
  IC50 for inhibition of cell adhesion (HUVEC to coated human TSP1): 12.6 nM

## [2Nal]RCGRDW[Pen]RW[Gly(cPent)]C-NH2 (bridge 3-8, N-12; not fully specified (N-terminus, bridges)) [Peptide-139]
  IC50 for inhibition of cell adhesion (HUVEC to coated human TSP1): 30.9 nM

## [2Nal]R[Pen]GRDW[hCys]RW[Gly(cPent)]C-NH2 (bridge 3-8, N-12; not fully specified (N-terminus, bridges)) [Peptide-133]
  IC50 for inhibition of cell adhesion (HUVEC to coated human TSP1): 125 nM

## [2Nal]RCGRDW[hCys]RW[Gly(cPent)]C-NH2 (bridge 3-8, N-12; not fully specified (N-terminus, bridges)) [Peptide-131]
  IC50 for inhibition of cell adhesion (HUVEC to coated human TSP1): 14.2 nM

## [2Nal]R[hCys]GRDWCRW[Gly(cPent)]C-NH2 (bridge 3-8, N-12; not fully specified (N-terminus, bridges)) [Peptide-132]
  IC50 for inhibition of cell adhesion (HUVEC to coated human TSP1): 7 nM

## [2Nal]RCGRDW[Pen]RW[Gly(cPent)]C-NH2 (disulfide 3-8; bridge N-12; not fully specified (N-terminus, bridges)) [Peptide-138]
  IC50 for inhibition of cell adhesion (HUVEC to coated human TSP1): 92.5 nM

## [2Nal][Phg][hCys]G[Agb]NW[hCys]RW[Gly(cPent)]C-NH2 (disulfide 3-8; bridge N-12; not fully specified (N-terminus, bridges)) [Peptide-3]
  IC50 for inhibition of cell adhesion (HUVEC to coated human TSP1): 29.9 nM
